This note sets out measurements from US9096681B2, “XBP1, CD138, and CS1 peptides” (Dana-Farber Cancer Institute, Inc., priority 2008, dated 2015).

For this assay, the target named is HLA-A2 molecules on the surface of human T2 cells (Homo sapiens, UniProt P04439, D140Y/D185E/D98H/E176V/E277Q/G131W/G231S/I119V/I121R/I166T/I218V/L300P/L318F/N151K/N90K/P208A/P217A/Q86G/Q94H/R138H/R169H/T345S). The assay can be described thus: Peptide stability assay (peptide/HLA-A2 binding stability post-Brefeldin A).

As to “GLVGLIFAV (listed as Homo sapiens) [CD138 #2p, native CD138 peptide]”, for the setting “CD138 peptide (FIG. 12), 0 hr, 2 hr, 4 hr, 6 hr, or overnight”, the HLA-A2 binding stability entry is “nearly equivalent to influenza virus protein matrix peptide58-66”.
As to “NISPWILAV (listed as Homo sapiens) [XBP1184-192, native non-spliced XBP1 peptide]”, the HLA-A2 binding stability result (non-spliced XBP1 peptides (FIG. 2), 0, 2, 4, 6 and 18 hours post-Brefeldin A) is “significantly lower level of HLA-A2 binding stability as compared to the influenza virus protein matrix peptide58-66”.
